Laboratory results as given in patent publication US10456446B2, “Use of human small leucine zipper protein in osteogenesis procedure” (Korea University Research and Business Foundation, priority 2013, dated 2019).
“Also recorded” adds a separate entry of the source.

B1: N domains of sLZIP: N-terminal deletion mutant of sLZIP (1-228) (protein)
chain: MELELDAGDQDLLAFLLEESGDLGTAPDEAVRAPLDWALPLSEVPSDWEVDDLLCSLLSPPASLNILSSSNPCLVHHDHTYSLPRETVSMDLESESCRKEGTQMTPQHMEELAEQEIARLVLTDEEKSLLEKEGLILPETLPLTKTEEQILKRVRRKIRNKRSAQESRRKKKVYVGGLESRVLKYTAQNMELQNKVQLLEEQNLSLLDQLRKLQAMVIEISNKTSSSS
modifications: left off: a dimerising Fc or GST
B2: sLZIP: human small leucine-zipper protein, isoform of LZIP, 354 amino acids, no transmembrane domain, GenBank FJ263669, SEQ ID NO: 1 (protein, listed as Homo sapiens)
chain: MELELDAGDQDLLAFLLEESGDLGTAPDEAVRAPLDWALPLSEVPSDWEVDDLLCSLLSPPASLNILSSSNPCLVHHDHTYSLPRETVSMDLESESCRKEGTQMTPQHMEELAEQEIARLVLTDEEKSLLEKEGLILPETLPLTKTEEQILKRVRRKIRNKRSAQESRRKKKVYVGGLESRVLKYTAQNMELQNKVQLLEEQNLSLLDQLRKLQAMVIEISNKTSSSSMYSSDTRGSLPAEHGVLSRQLRALPSEDPYQLELPALQSEVPKDSTHQWLDGSDCVLQAPGNTSCLLHYMPQAPSAEPPLEWPFPDLFSEPLCRGPILPLQANLTRKGGWLPTGSPSVILQDRYSG

Experiments:
PPARγ2 = assay: GST / His pull-down and immunoprecipitation of sLZIP with PPARγ2; format: binding
Method: 293T cells were obtained and washed with cold PBS. The cells were re-suspended in an IP lysis buffer [25 mM of Tris-HCl (pH 7.4), 150 mM of NaCl, 1 mM of EDTA, 1% NP-40 and 5% glycerol, and a protease inhibitor]. A suspension was centrifuged at 16,000×g for 20 minutes at 4° C. Supernatants were collected and incubated with 0.5 μg of appropriate antibodies and 25 μl of protein A/G-agarose or a GST Sepharose 4B bead for 24 hours at 4° C. A protein complex was centrifuged at 1,000×g with a cold IP lysis buffer for 1 minute and washed five times. The final pellet was re-suspended in 50 μl of an SDS-sample buffer containing 5% β-mercaptoethanol and heated for 10 minutes at 100° C. A protein sample was isolated in SDS-PAGE (8 to 10%) and transferred to nitrocellulose membranes. Co-precipitated proteins were detected according to western blotting using specific antibodies.
In order to examine whether the transcriptional activity of PPARγ2 is regulated by interaction with sLZIP, interaction between sLZIP and PPARγ2 was examined. For this purpose, 293T cells were transfected with GST-sLZIP and Myc-PPARγ2. Cell lysates were obtained and GST pull-down analysis was performed using a glutathione 4B bead. A protein complex was analyzed in SDS-PAGE and then immunoblotted with specific antibodies (FIG. 2A). The 293T cells were transfected with GST-PPARγ2 and Flag-sLZIP, and identified according to GST-pull-down analysis (FIG. 2B). PPARγ2 was translated in vitro by a TNT translation system (Promega). His-sLZIP proteins were expressed in BL21 cells using an IPTG-inducement system. Purified His-sLZIP proteins were subjected to His pull-down analysis. Proteins bound to the bead were analyzed in SDS-PAGE, and then immunoblotted with anti-PPARγ2 and anti-His antibodies (FIG. 2C). GFP-PPARγ2 and Flag-sLZIP constructs were expressed in C3H10T1/2 cells, and analyzed using mouse anti-Flag and Texas Red-labeled anti-mouse antibodies under a fluorescence microscope. The nucleus was stained with DAPI (FIG. 2D).
Activation of many nuclear receptors depends on a supplement of coactivators. Therefore, a domain of sLZIP necessary for binding with PPARγ2 was examined. For this purpose, 293T cells were transfected with GST-full length sLZIP (1-354), N-terminal deletion mutant sLZIP (1-228), C-terminal deletion mutant sLZIP (229-354), CC-terminal deletion mutant sLZIP (297-354) and PPARγ2. Cell lysates were obtained and GST pull-down analysis was performed using a glutathione 4B bead. A protein complex was analyzed in SDS-PAGE, and then immunoblotted with specific antibodies (FIG. 3A). 293T cells were transfected with Flag-full length PPARγ2, full length PPARγ2, N-terminal deletion mutant PPARγ2 (1-310), C-terminal deletion mutants PPARγ2 (139-505) and GST-sLZIP. Cell lysates were obtained and GST pull-down analysis was performed. A protein complex was analyzed in SDS-PAGE, and then immunoblotted with anti-GST and anti-Flag antibodies (FIG. 3B).
For this purpose, 293T cells were transfected with GST-PPARγ2 and Flag-sLZIP and were treated or not treated with 10 nM of RZD for 24 hours. Cell lysates were obtained and GST pull-down analysis (FIG. 5A) and immunoprecipitation (FIG. 5B) were performed using a glutathione 4B bead. A protein complex was analyzed in SDS-PAGE, and immunoblotted with anti-GST and anti-Flag antibodies. GST-PARγ2 and Flag-sLZIP were expressed in the 293T cells, and the cells were treated with 10 nM of RZD according to time of day. The cell lysates were GST pull-down analyzed (FIG. 5C). 293T cells were transfected with GST-HDAC3 and Flag-sLZIP, and treated or not treated with 10 nM of RZD for 24 hours. The cell lysates were GST pull-down analyzed (FIG. 5D). Flag-sLZIP was expressed in the 293T cells, and the cells were treated with 10 nM of RZD for 24 hours. Immunoprecipitation analysis of the cell lysates was performed using anti-NCoR1 antibodies. […]

[1] = Solubility in saline or buffer solution; format: physicochemical
[2] = GST pull-down, transfected 293T cells

| Molecule | interaction with PPARγ2 (PPARγ2; [2]) | interaction with PPARγ2 (PPARγ2; GST pull-down, transfected 293T cells, listed as wild type sLZIP) | direct interaction with PPARγ2 (PPARγ2; His pull-down, purified His-sLZIP and in vitro translated PPARγ2) | interaction with PPARγ2 (PPARγ2; ligand treated (10 nM RZD), GST pull-down or immunoprecipitation) | interaction with PPARγ2 (PPARγ2; no stimulation with a ligand, GST pull-down) | solubility [1] |
| --- | --- | --- | --- | --- | --- | --- |
| B1 | not interacted with PPARγ2 |  |  |  |  |  |
| B2 | PPARγ2 interacted with sLZIP | interacted with PPARγ2 | directly bound | dissociated from sLZIP; also recorded: dissociated from PPARγ2 in a time-dependent manner | interacted with PPARγ2 | very soluble |
